# Source: the RNAGym collection of RNA variant scans (doi:10.1073/pnas.2313332121)
# B1: TPR t1 (parent)
# chain: GACCAAUCUGCCCUCAGAGCUCGAGAACAUCUUCGGAUGCAGAGGAGGCAGGCUUCGGUGGCGCGAUAGCGCCAACGUCCUCAACCUCCAAUGCAUCCCACCACAUGAUGAUGCCUGAAGAGCCUUGGUUUUUUG
# Variants of: B1
# Experiment: polymerase ribozyme fitness, log enrichment relative to wild type (log ratio); higher = more active; in vitro selection for triplet polymerase activity
# In short: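 After PCR construction and transcription, each subunit's mutant library from a heterodimeric triplet polymerase ribozyme was annealed with a biotinylated primer, the partner subunit and triplets. Incubation was frozen, at −7 °C, and extended constructs were gel-excised, bound to streptavidin beads and amplified by RT-PCR, in one selection round done in triplicate. Fitness is the logarithm of a genotype's enrichment divided by that of the wild type, from inverse-variance-weighted replicate averages of Illumina-sequenced inputs and outputs. The base of the logarithm is 2, and genotypes needed ≥10 input reads and ≥1 read per output.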
row,Variant,polymerase ribozyme fitness (log ratio)
1,G10C C11U A84U A108G,-2.5
2,G10C G61A U96A,-0.958
3,G10U G69A A91C,-7.2
4,G10U A29C G60A,-3.27
5,G10U C40G C124U U129A,-1.91
6,C11A C12U A37G U78A U131A,-1.88
7,G10U U112G C123G,0.673
8,C11A C12G C73A C104U G120A,-1.09
9,C11A C28U C53U C89A,-5.79
10,G10C C115A G128A,-3.1
11,G10U C12U C82A A84G,-0.497
12,G10U G42U A91C U106A U112A,-0.271
13,G10U C20A A50C C72U C114U,-4.68
14,G10U C13U G48A G61A A83U C98U G117A,-2.09
15,G10C A50G G69U C89A A121U,0.925
16,G10U A121U,1.92
17,G10U C88U,-0.654
18,G10U A118U,-0.131
19,G10U G48U,-0.243
20,G10U G60U U112A C114U,-1.17
21,G10U U38G C70A C73U C123A U130G,-3.12
22,G10U G93U U129C,-1.98
23,G10U A26U,-2.52
24,G10U C97U,-0.693

row,Variant,polymerase ribozyme fitness (log ratio)
1,G10C C49G U81C G120C,-4.69
2,G10C C56U,-0.594
3,G10C C62A U78C,-1.58
4,G10C C49A G51C G57C C72U C115G,-3.99
5,G10U C40G G52C C98U C123U,-2.05
6,G10C G60U,-0.819
7,C11A A41U G47A U109A,-5.79
8,G10U A18U A29U U54A C73A A121C,-1.7
9,G10C G120C,1.04
10,G10U C40U G52U C64U,-1.92
11,G10C G17U G63A,-4.45
12,C11A C13U C53A,-1.65
13,G10C A18U C88A C97U U106C,-5.16
14,G10U G77A C79U C94U,-0.432
15,C11A A29G C56G A91C U112A A121G G122C,-1.75
16,G10U G113C U125A,-3.42
17,G10C G110U,-2.66
18,G10U G52U G61U G127A,-2.92
19,C11A C22U A91U C102U C115U G135U,-6.8
20,G10C A41C C70U,-3.72
21,C11A C15U C28G C123G G128U,-5.63
22,G10U G48U G93A,-1.17
23,G10U G42U,-2.78
24,G10C C40G A66U,-2.18

row,Variant,polymerase ribozyme fitness (log ratio)
1,G10U C28U,-2.12
2,G10C C13A C82U A83C,-0.888
3,G10C C80A U130G,-3.78
4,C11A C13G C20U C53U U78G,-2.65
5,G10U U59C C85U,-0.716
6,G10U G69U U112G C123G,1.15
7,C11A A37U C62A C102A,-5.51
8,G10U C12G C89G U96A G110U U112A G117C,-5.26
9,G10U C13U U38G C123A,1.31
10,G10U A43U C73G A108G,-6.59
11,G10U U59A G71U,-2.51
12,G10U C22A A119U,-5.31
13,G10C A108C C114G,-5.74
14,G10U C73U,-0.579
15,C11A C13U A50U C62U,-2.9
16,G10C G69U C79G C80U,-2.66
17,G10U C76A G127C,-2.18
18,G10U U30C C124G,-2.38
19,G10C C13G C94A,-0.274
20,G10U C34U G44C U112C,-5
21,C11A C13U G60C A100C U132C,-2.62
22,G10C A66U C97U G120U C123U,0.489
23,C11A C28G C80U,-3.39
24,G10U A29U C53G,-2.58

row,Variant,polymerase ribozyme fitness (log ratio)
1,G10U C49U G63A A100C,-3.83
2,G10U C11A C13G G19A G57U A90G A91U,-2.55
3,C11A A74U,-2.52
4,G10C C49G U55G C94A,-3.2
5,G10C A16U,-1.98
6,G10U U14A U132A,-1.64
7,G10U C22U G47A U96A C123A,-5.89
8,G10U G63C,-0.933
9,G10U G63A,-1.08
10,G10C A43G,-3.12
11,G10U A29U C86A U112C,-1.11
12,G10U A75U,-0.536
13,G10U U14A G113C G122A,-3.62
14,G10U A37C C85A,-1.32
15,G10C A16C C53U G117U,-4.5
16,G10U G122A,0.462
17,G10U C13G C72U,-0.677
18,G10U C20A C56U,-2.94
19,G10U C11G U14A A37G C76U G93C C102A,-5.35
20,G10U C70U U78C C82G,-2.45
21,G10U G110U C114U,-3.42
22,C11A C13G G36U,-2.87
23,G10U C15G G120A,-1.69
24,G10C C56G C123U,1.26

row,Variant,polymerase ribozyme fitness (log ratio)
1,G10U C88G G110C,-5.78
2,C11A A29U U59A C70A G120A,-1.52
3,G10U G19C A37U C72A,-1.54
4,G10U U32C C56A C72A,-1.43
5,G10U U30C U33C G71U C79U C101A C102G A111U,-7.18
6,G10C G45A C104A,-2.44
7,G10U G17U C56U U109A G110C A118G C123A,-6.9
8,G10U U78C C86U G110A,-1.98
9,G10U A27C G44C G69U C88G G93A C114A,-6.93
10,G10U G63U C79U U132A,-0.795
11,G10U C13G G45U C72A A91G C102A A118U C124G U132A U133C,-3.66
12,G10U G71U,-0.746
13,G10U G71A,-0.104
14,G10U C15U A18U C49A C70U C80A G93U G117U,-7.04
15,G10C A50C G69U G110A G113C,-6.42
16,C11A C20U C40A A43U A119U,-5.02
17,G10U A105C,-2.95
18,C11A A118G,-1.55
19,G10U G71A G120U,1.24
20,G10C C64U C123G U133A,1.47
21,G10U C22G U106A G120C,-2.7
22,C11A A29U U59A C70U G120A,-1.3
23,C11A C12U G61U A100U,-1.23
24,C11A A37G U59A U131C,-1.86

row,Variant,polymerase ribozyme fitness (log ratio)
1,G10U G113C G120U A121C,-2.24
2,G10C C12A A83C C124G,1.04
3,G10U C15U G69U A91C U125A,-3.03
4,G10U A37C C53G A95G,-0.638
5,G10C C12A U54C G122A,0.0391
6,G10U C11G C62G,-1.22
7,C11A C13U,-1.75
8,G10U G42A G45U,-3.02
9,C11A C12U G57U U87G G93A C102A,-4.56
10,G10U C13G,0.0488
11,G10U G42U C104A G120C,-4.1
12,G10C C11G U21A,0.0374
13,C11A C12U G25U C56U G69C C98U G110A,-6.12
14,G10U G63U G113C,-4.79
15,G10U A84G G120A U125G,0.926
16,G10C C64U A121U U131A,1.16
17,G10U C56U G117C G122U,-3.32
18,G10U C15G G61A,-1.63
19,G10U C53G U55A C56A G63A,-2.18
20,G10C G61U C114U,-1.8
21,G10C G52U G60A C89A,-4.24
22,C11A C12U,-0.179
23,C11A C12A,-1.15
24,G10U C13U C73U C102G A119U C124A,-5.74

row,Variant,polymerase ribozyme fitness (log ratio)
1,G10C C49G G61A U112A A118U,1.17
2,G10C A29C G61C C123U U125A G135A,-4.26
3,G10U U87G C88G C98U G113A,-1.98
4,G10C G36U A50C U78G C86A,-4.45
5,G10U A50U C89G,-2.96
6,C11A A37U G51U C56U A68U C98A U109A,-8.64
7,G10U C62A G71U G127C,-0.898
8,G10U G44A G52U G122A C123U C124G U130G,-1.61
9,G10U A26U G42A U106A U125G,-4.36
10,G10C C11A U54G A68U U109A G128U,-7.09
11,G10U C20U A43C A50C C79G C88U A121G,-4.86
12,G10U G48C G60A,-0.865
13,G10U C114A U125A G135U,-3.39
14,G10U C85U,-0.736
15,G10U C11U C73A C88A U126C,-2.02
16,G10C U87G C115U A119G G120C U131G,-1.59
17,G10C C13U U78G C79U C89U,-0.171
18,G10U G60A C123G C124A,3.33
19,G10C C49G G61A U81C G120C,-4.13
20,G10C G42C G61C C123A G128A,-6.33
21,G10U C20A,-3.25
22,C11A C22G G48A A119G,-3.23
23,G10C C40G,-1.34
